Reference: PMC5146997
pIC50, pKd: −log10 of the molar value.

Assays:
[1] = target: EphA2 at the surface of PC3 cells (endogenous) (human (endogenous in PC3)) (UniProt P29317); experiment: in-cell binding assay
[2] = target: EphA2-Fc (entire ectodomain of EphA2 fused to the Fc fragment of IgG) (UniProt P29317); experiment: ELISA
EphA2-Fc (entire ectodomain of EphA2 fused to the Fc fragment of IgG), sequence (P29317 24-537): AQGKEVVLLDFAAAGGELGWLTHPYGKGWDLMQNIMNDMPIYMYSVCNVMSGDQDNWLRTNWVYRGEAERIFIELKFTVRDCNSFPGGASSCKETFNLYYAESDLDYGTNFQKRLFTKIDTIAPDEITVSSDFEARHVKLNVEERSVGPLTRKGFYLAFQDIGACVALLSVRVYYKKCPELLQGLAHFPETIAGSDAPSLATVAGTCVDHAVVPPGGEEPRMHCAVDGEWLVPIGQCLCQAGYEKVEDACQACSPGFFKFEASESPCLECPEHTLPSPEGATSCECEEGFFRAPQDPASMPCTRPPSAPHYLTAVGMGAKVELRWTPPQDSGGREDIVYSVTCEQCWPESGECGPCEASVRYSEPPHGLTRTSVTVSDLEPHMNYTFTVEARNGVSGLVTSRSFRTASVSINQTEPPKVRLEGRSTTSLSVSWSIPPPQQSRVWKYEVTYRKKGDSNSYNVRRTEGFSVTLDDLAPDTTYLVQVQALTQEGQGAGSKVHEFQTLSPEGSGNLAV

EphA2 at the surface of PC3 cells (endogenous) (human (endogenous in PC3)), sequence (P29317 24-976): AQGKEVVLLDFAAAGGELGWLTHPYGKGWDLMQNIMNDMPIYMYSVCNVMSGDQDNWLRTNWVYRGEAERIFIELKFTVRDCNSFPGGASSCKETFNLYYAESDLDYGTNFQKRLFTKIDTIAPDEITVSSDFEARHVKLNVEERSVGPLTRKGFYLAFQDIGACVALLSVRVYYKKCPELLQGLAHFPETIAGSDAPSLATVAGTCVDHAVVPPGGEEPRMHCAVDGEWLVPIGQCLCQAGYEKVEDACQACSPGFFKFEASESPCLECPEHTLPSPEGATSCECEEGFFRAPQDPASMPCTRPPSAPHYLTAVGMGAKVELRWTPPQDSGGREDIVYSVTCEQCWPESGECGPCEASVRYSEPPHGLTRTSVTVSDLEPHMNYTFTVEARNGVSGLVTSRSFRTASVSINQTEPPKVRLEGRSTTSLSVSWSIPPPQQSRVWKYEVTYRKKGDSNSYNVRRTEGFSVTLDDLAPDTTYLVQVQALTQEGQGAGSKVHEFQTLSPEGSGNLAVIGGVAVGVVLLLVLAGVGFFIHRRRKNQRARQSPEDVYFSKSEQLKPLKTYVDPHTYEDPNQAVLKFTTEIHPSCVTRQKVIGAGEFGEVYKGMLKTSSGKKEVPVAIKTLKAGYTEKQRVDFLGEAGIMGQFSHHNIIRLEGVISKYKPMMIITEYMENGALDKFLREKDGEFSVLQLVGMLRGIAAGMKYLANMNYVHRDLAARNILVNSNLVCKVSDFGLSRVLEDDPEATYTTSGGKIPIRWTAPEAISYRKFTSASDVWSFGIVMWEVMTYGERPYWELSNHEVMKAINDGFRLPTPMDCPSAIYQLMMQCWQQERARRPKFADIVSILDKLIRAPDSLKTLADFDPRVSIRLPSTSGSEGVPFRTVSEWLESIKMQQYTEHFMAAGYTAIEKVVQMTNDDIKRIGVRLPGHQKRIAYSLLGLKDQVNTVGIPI

pIC50 [1]: 6.40
pKd [2]: 7.77
Substance: EphrinA1-Fc (from UniProt P20827 19-182) (Fc fusion)
